CN110981959A (SHENZHEN PREGENE BIOPHARMACEUTICAL CO LTD, dated 2020)

What was measured:
[1] = target: Human CD47/Biotinylated (human, UniProt Q08722 19-139, limits assumed, biotinylated (site not stated)); experiment: BLI-type kinetics, biotinylated human CD47 captured on SA probes, antibody at 73.5-588.2 nM
[2] = target: CD47 on HL-60 cells (细胞膜表面表达的CD47抗原) (UniProt Q08722); experiment: flow cytometry, 20 μg/ml nanobody on HL-60 cells, anti-His staining
[3] = target: CD47抗原 (北京义翘神州, 货号12283-H08H) (UniProt Q08722); experiment: ELISA of induced culture supernatants on CD47 antigen (clone screening)

Human CD47/Biotinylated, sequence (Q08722 19-139 limits assumed): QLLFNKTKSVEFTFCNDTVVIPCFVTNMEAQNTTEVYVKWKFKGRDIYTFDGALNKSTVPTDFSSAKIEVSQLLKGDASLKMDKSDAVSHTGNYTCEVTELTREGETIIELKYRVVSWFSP

Binder | Kd [1] | 结合率 [2] | OD值 over negative control (fold) [3]
CD47单域抗体 SEQ ID NO: 3 (VHH, His-tagged sdAb from pSJF2 in E. coli (Ni purification, anti-His detection); also called CD47纳米抗体) VHH: HVQLEESGGGLVQPGGSLRLSCKASGLTFASYSMRWYRQAPGQERELVARLSSSGVPIEYVDSVKGRFTASRDDAKSTLYLQMNSLKPEDTAMYYCWIANYWGQGTQVTVSS | < 1 nM | > 99% | > 5 fold
CD47单域抗体 SEQ ID NO: 1 (VHH, Expressed from pSJF2 in E. coli, purified on Ni column and detected with anti-His antibody, so it carried a His tag; also called CD47纳米抗体) VHH: DVKLVESGGGLVQPGGSLRLSCAASGFTVSSYSMRWYRQVPGKERELIARITSTGQPIEYGESVKGRFTISRDNAKNTLYLEMNALKPEDTAVYYCWGAGYWGQGTQVTVSS | < 1 nM | > 99% | > 5 fold
CD47单域抗体 SEQ ID NO: 9 (VHH, His-tagged sdAb from pSJF2 in E. coli (Ni purification, anti-His detection); also called CD47纳米抗体) VHH: AVKLVESGGGLVQPGGSLRLSCAASGFTVSNNNLRWYRQAPGKERELVAMITSAGNTNYADAVKGRSTISRDNAKNTLYLEMYRLKPEDTAVYYCWGAAHWGRGTQVTVSS | < 1 nM | > 99% | > 5 fold
CD47单域抗体 SEQ ID NO: 2 (VHH, His-tagged sdAb from pSJF2 in E. coli (Ni purification, anti-His detection); also called CD47纳米抗体) VHH: QVKLEESGGGLVQPGESLRLSCVASGFAFSSALMRWYRQAPGKERELVASITTAGGITGYADSVKGRFTISRDNAENTLYLQMNSLKPEDTAVYYCRAYGFQLDNWGQGTQVTVSS | < 1 nM | > 99% | > 5 fold
CD47单域抗体 SEQ ID NO: 5 (VHH, His-tagged sdAb from pSJF2 in E. coli (Ni purification, anti-His detection); also called CD47纳米抗体) VHH: GVQLVESGGGLVQPGESLRLSCVASGFAFSSALMRWYRQAPGKERELVASVTTTGGITGYADSVKGRFTISRDNAENTLYLRMNSLKPEDTAVYYCRAYGFGLDSWGQGTQVTVSS | < 1 nM | > 99% | > 5 fold
CD47单域抗体 SEQ ID NO: 10 (VHH, His-tagged sdAb from pSJF2 in E. coli (Ni purification, anti-His detection); also called CD47纳米抗体) VHH: GVKLVESGGGLVQPGGSLTLSCVASGFDFNSAHMRWYRQGPGKEREMVASISTTGGVTIYEDSVKGRFTISRDNADNTAYLRMNSLKPEDTAVYYCRAYGFGIDYWGQGTQVTVSS | < 1 nM | > 99% | > 5 fold

Now from value to binder:

Kd [1] | 结合率 [2] | OD值 over negative control (fold) [3] | Binder
< 1 nM | > 99% | > 5 fold | CD47单域抗体 SEQ ID NO: 6 (VHH, His-tagged sdAb from pSJF2 in E. coli (Ni purification, anti-His detection); also called CD47纳米抗体) VHH: QVKLEESGGGLVQPGGSLRLSCAASGLTFSSYSMRWYRQAPGQERELVARLTSSGEPIEYADSVKGRFTASRDNAKSTVYLQMNSLKPEDTAMYYCWIANYWGQGTQVTVSS
< 1 nM | > 99% | > 5 fold | CD47单域抗体 SEQ ID NO: 7 (VHH, His-tagged sdAb from pSJF2 in E. coli (Ni purification, anti-His detection); also called CD47纳米抗体) VHH: QVKLEESGGGLVQPGESLRLSCVASGFTFSDAHMRWYRQAPGKEREMVASISTTGSITIYADSVKGRFTISRDNDEKTVYLRMNSLKPEDTAAYYCRAYGFQIDSWGQGTQVTVSS
< 1 nM | > 99% | > 5 fold | CD47单域抗体 SEQ ID NO: 8 (VHH, His-tagged sdAb from pSJF2 in E. coli (Ni purification, anti-His detection); also called CD47纳米抗体) VHH: DVQLEESGGGLVQPGGSLRLSCAASGFTVSSYSMRWYRQAPGKERELVARITSTGEPIEYVESVKGRFTISRDNALNTLNLEMNDLKPEDTAVYYCWGAGYWGQGTQVTVSS
< 1 nM | > 99% | > 5 fold | CD47单域抗体 SEQ ID NO: 4 (VHH, His-tagged sdAb from pSJF2 in E. coli (Ni purification, anti-His detection); also called CD47纳米抗体) VHH: DVQLVESGGGSVQPGGSLTLSCAASGFTVSNYSMRWYRQAPGKERELIARITSTGVPIEYADSVKGRFTISRDNAKNTLYLEMNGLKPEDTAVYYCWGAAYWGQGTQVTVSS
